Measurements published in patent US7947462 (dated 2011).

B1: mkrm2 (receptor)
chain: GSLHSPGLSECFQVNGADYRGHQNYTGPRGAGRPCLFWDQTQQHSYSSASDPQGRWGLGAHNFCRNPDGDVQPWCYVAETEEGIYWRYCDIPTCHMPGYLGCFVDSGAPPALSGPSGTSTKLTVQVCLRFCRMKGYQLAGVEAGYACFCGSESDLARGRPAPATDCDQICFGHPGQLCGGDGRLGIYEVSVGSCQGNWSAPQGVIYSPDFPDEYGPDRNCSWVLGQLGAVLELTFRLFELADSRDRLELRDVSSGNLLRAFDGAHPPPPGPLRLRTAALLLTFRSDARGHAQGFALTYRGLQDTVEGRASPEDSTESLAGDPDGANASCSPKPGAAQASIGARVFSTVTAFSVLLLLLLSLLRLLRRRSCLLAPGKGSLAMGPSRGPGRSWAVWYRRPRGVALPCPPGDSQAEGPAAGYRPLSASSQSSLRSLVSAL
B2: mkrm1 (receptor)
chain: ARPAPGPRSGPECFTANGADYRGTQSWTALQGGKPCLFWNETFQHPYNTLKYPNGEGGLGEHNYCRNPDGDVSPWCYVAEHEDGVYWKYCEIPACQMPGNLGCYKDHGNPPPLTGTSKTSNKLTIQTCISFCRSQRFKFAGMESGYACFCGNNPDYWKHGEAASTECNSVCFGDHTQPCGGDGRIILFDTLVGACGGNYSAMAAVVYSPDFPDTYATGRVCYWTIRVPGASRIHFNFTLFDIRDSADMVELLDGYTHRVLVRLSGRSRPPLSFNVSLDFVILYFFSDRINQAQGFAVLYQATKEEPPQERPAVNQTLAEVITEQANLSVSAAHSSKVLYVITPSPSHPPQTAPGSHSWAPSVGANSHRVEGWTVYGLATLLILTVTAVVAKILLHVTFKSHRVPASGDLRDCRQPGASGDIWTIFYEPSTTISIFKKKLKGQSQQDDRNPLVSD

Key:
DKK1-AP [1] = experiment: Scatchard analysis, cell binding (transfected 293T); panel d, Kd1 (high-affinity site)
DKK2-AP [2] = experiment: Scatchard analysis, cell binding (transfected 293T); panel e, Kd2 (low-affinity site)
DKK2-AP [3] = experiment: Scatchard analysis, cell binding (transfected 293T); panel e, Kd1 (high-affinity site)
DKK1-AP [4] = experiment: Scatchard analysis, cell binding (transfected 293T); panel d, Kd2 (low-affinity site)
DKK2-AP [5] = experiment: Scatchard analysis, cell binding (transfected 293T); panel b
DKK1-AP [6] = experiment: as above

Row | Binder | Kd (DKK1-AP [1]) [nM] | Kd (DKK2-AP [2]) [nM] | Kd (DKK2-AP [3]) [nM] | Kd (DKK1-AP [4]) [nM] | Kd (DKK2-AP [5]) [nM] | Kd (DKK1-AP [6]) [nM]
1 | B1 | 0.3 | 3 | 0.36 | 2.6 | – | –
2 | B2 | – | – | – | – | 0.35 | 0.28
